Source: patent publication US20180371093A1 (Novartis, published 2018)

Tests used:
[1] = target: T1, Programmed Death 1 (PD-1) (UniProt Q15116 25-167, limits assumed); test: cell-based or functional assay
[2] = target: T1, Programmed Death 1 (PD-1); test: rank in competition binding against labelled murine mAb BAP049, 2nd experiment
[3] = target: T1, Programmed Death 1 (PD-1); test: FACS ligand blocking: binding of PD-L1-Ig to PD-1 at increasing mAb concentration (legend paragraph 212 names 'PD-L1-Ig and PD-L2-Ig' for FIG. 8A)
[4] = target: T1, Programmed Death 1 (PD-1); test: rank in competition binding against labelled murine mAb BAP049, 1st experiment
[5] = target: T1, Programmed Death 1 (PD-1); test: rank among the 16 humanized clones by FACS binding data

T1 sequence (Q15116 25-167 limits assumed): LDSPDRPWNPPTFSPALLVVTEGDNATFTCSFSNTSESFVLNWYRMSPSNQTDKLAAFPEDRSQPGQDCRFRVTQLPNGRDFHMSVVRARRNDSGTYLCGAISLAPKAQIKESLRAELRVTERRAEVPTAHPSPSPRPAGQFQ

Row | Binder | ex vivo EC50 for PD-1 blockade (IL-2 change in SEB ex-vivo assay) [1] | Competition Binding 2nd exp. (rank) [2] | IC50 (read off the curve) [3] | Competition Binding 1st exp. (rank) [4] | Ranking FACS data [5]
1 | BAP049-Clone-E (antibody, human IgG4 S228P, kappa) heavy: not shown light: EIVLTQSPATLSLSPGERATLSCKSSQSLLDSGNQKNFLTWYQQKPGQAPRLLIYWASTRESGVPSRFSGSGSGTDFTFTISSLEAEDAATYYCQNDYSYPYTFGQGTKVEIKRTVAAPSVFIFPPSDEQLKSGTASVVCLLNNFYPREAKVQWKVDNALQSGNSQESVTEQDSKDSTYSLSSTLTLSKADYEKHKVYACEVTHQGLSSPVTKSFNRGEC | 0.42 µg/mL |  |  |  | 
2 | BAP049-hum10 (antibody, human IgG4 S228P, kappa, Humanized mAb) heavy: not shown light: EIVLTQSPATLSLSPGERATLSCKSSQSLLDSGNQKNFLTWYQQKPGQAPRLLIYWASTRESGVPSRFSGSGSGTDFTFTISSLEAEDAATYYCQNDYSYPYTFGQGTKVEIKRTVAAPSVFIFPPSDEQLKSGTASVVCLLNNFYPREAKVQWKVDNALQSGNSQESVTEQDSKDSTYSLSSTLTLSKADYEKHKVYACEVTHQGLSSPVTKSFNRGEC |  | > 4 rank | ~1 µg/mL | 6 rank | 7 rank
